Experimental data taken from paper PMC4776146, “Distinct phosphorylation sites on the ghrelin receptor, GHSR1a, establish a code that determines the functions of ß-arrestins” (Scientific Reports, 2016).

Legend:
Assay in all cases: FRET or BRET; BRET in living HEK 293 cells; eYFP-tagged receptor and Rluc-ß-arrestin co-transfected at a ratio of 4:1; Hanks' balanced salt solution; coelenterazine 2.5 uM for 10 min at 37 °C, then ghrelin for 5 min; concentration response curves for ghrelin; emissions at 535 and 475 nm
[1] = target: GHSR1a-TM (triple mutant of Ser362, Ser363 and Thr366 to Ala) fused at its C terminus to eYFP (UniProt Q92847)
[2] = target: GHSR1a-Total (Ser349, Thr350, Ser362, Ser363 and Thr366 substituted by Ala) fused at its C terminus to eYFP (UniProt Q92847)
[3] = target: T1, GHSR1a-WT fused at its C terminus to enhanced yellow fluorescent protein (eYFP) (UniProt Q92847 1-366); settings: partners not purified
T1 construct: amplified by PCR with primers that removed the stop codon, subcloned upstream of full-length eYFP in pcDNA3.1; Phosphorylated in cells after ghrelin at Ser349, Thr350, Ser362, Ser363 and Thr366 (mass spectrometry on the EGFP-tagged receptor); also called YFP-GHSR1a-WT; YFP tagged-GHSR1a-WT; source: HEK 293, transiently co-transfected (Lipofectamine 2000), in living cells; not shown: eYFP, …

[4] = target: T2, GHSR1a-DM (double mutant Thr350Ala, Ser349Ala) fused at its C terminus to eYFP (UniProt Q92847 1-366, Thr350Ala | Ser349Ala); settings: partners not purified
T2 construct: also called YFP-GHSR1a-DM; source: HEK 293, transiently co-transfected (Lipofectamine 2000), in living cells; not shown: eYFP, C-terminal, kept
T2 sequence (Q92847 whole entry S349A/T350A, the tested form may be a part): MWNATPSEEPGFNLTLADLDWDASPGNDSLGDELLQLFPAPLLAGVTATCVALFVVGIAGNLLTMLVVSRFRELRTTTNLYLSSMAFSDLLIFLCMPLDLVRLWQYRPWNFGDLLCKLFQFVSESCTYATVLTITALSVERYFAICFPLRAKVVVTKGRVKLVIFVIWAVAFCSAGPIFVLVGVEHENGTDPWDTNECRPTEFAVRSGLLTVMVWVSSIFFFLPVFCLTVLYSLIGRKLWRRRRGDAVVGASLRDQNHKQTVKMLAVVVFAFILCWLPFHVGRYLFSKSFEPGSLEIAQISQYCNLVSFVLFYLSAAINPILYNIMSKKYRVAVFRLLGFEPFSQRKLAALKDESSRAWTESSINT

Sequence of ß-arrestin 2 tagged with Rluc at its C-terminus (P32121 whole entry): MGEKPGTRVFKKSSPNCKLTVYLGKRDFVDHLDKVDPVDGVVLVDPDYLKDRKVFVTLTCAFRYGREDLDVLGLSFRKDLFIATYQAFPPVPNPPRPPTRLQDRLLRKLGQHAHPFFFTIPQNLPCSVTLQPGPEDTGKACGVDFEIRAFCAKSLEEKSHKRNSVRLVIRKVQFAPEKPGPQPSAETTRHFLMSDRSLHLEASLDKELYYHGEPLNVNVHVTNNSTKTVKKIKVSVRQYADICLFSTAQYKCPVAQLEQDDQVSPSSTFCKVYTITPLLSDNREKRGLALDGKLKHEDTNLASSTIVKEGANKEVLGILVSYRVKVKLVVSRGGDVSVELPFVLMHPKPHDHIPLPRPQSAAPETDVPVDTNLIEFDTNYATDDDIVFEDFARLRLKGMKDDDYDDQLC
Sequence of GHSR1a-TM (triple mutant of Ser362, Ser363 and Thr366 to Ala) fused at its C terminus to eYFP (Q92847 other isoform, or with tags, fused parts or gaps, change not shown): as the sequence (Q92847 whole entry S349A/T350A, the tested form may be a part) above, with A349S, A350T, S362A, S363A, T366A counted along it
Sequence of GHSR1a-Total (Ser349, Thr350, Ser362, Ser363 and Thr366 substituted by Ala) fused at its C terminus to eYFP (Q92847 other isoform, or with tags, fused parts or gaps): as the sequence (Q92847 whole entry S349A/T350A, the tested form may be a part) above, with S362A, S363A, T366A counted along it
T1 sequence (Q92847 whole entry, the tested form may be a part): as the sequence (Q92847 whole entry S349A/T350A, the tested form may be a part) above, with A349S, A350T counted along it

Row | efficacy of recruitment, percent of GHSR1a-WT response (BRET) (% of GHSR1a-WT response) [1] | pEC50 of ghrelin for ß-arrestin 2 recruitment (BRET) [1] | efficacy of recruitment, percent of GHSR1a-WT response (BRET) (% of GHSR1a-WT response) [2] | pEC50 of ghrelin for ß-arrestin 2 recruitment (BRET) [2] | pEC50 of ghrelin for ß-arrestin 1 recruitment (BRET) [1] | pEC50 of ghrelin for ß-arrestin 1 recruitment (BRET) [2] | pEC50 of ghrelin for ß-arrestin 1 recruitment (BRET) [3] | pEC50 of ghrelin for ß-arrestin 1 recruitment (BRET) [4] | Molecule
1 | 24.6 | 6.97 | 18 | 6.04 |  |  |  |  | ß-arrestin 2 tagged with Rluc at its C-terminus (from UniProt P32121 1-409) (natural protein)
2 | 36.8 |  | 31.8 |  | 7.13 | 6.01 | 7.54 | 7.1 | Renilla luciferase-tagged ß-arrestin 1 (natural protein, UniProt P49407 1-418, looked up, plasmid provided by Prof; Mark Scott (Institut Cochin, Paris); also called Rluc-ß-arrestin 1; source: HEK 293, transiently co-transfected (Lipofectamine 2000), in living cells) MGDKGTRVFKKASPNGKLTVYLGKRDFVDHIDLVDPVDGVVLVDPEYLKERRVYVTLTCAFRYGREDLDVLGLTFRKDLFVANVQSFPPAPEDKKPLTRLQERLIKKLGEHAYPFTFEIPPNLPCSVTLQPGPEDTGKACGVDYEVKAFCAENLEEKIHKRNSVRLVIRKVQYAPERPGPQPTAETTRQFLMSDKPLHLEASLDKEIYYHGEPISVNVHVTNNTNKTVKKIKISVRQYADICLFNTAQYKCPVAMEEADDTVAPSSTFCKVYTLTPFLANNREKRGLALDGKLKHEDTNLASSTLLREGANREILGIIVSYKVKVKLVVSRGGLLGDLASSDVAVELPFTLMHPKPKEEPPHREVPENETPVDTNLIELDTNDDDIVFEDFARQRLKGMKDDKEEEEDGTGSPQLNNR
